B1: TOR1AIP2 (parent)
chain: YTSSQKVSPIQIDGAGRTWQDSDT
B2: ISL2 (parent)
chain: HYPFLGAMGDHSKKKPGTAMCVGC

Variants of: B1
Assay: protein stability index of a GFP-peptide fusion (GPS, HEK-293T) (PSI 1-6); higher = more stable
Conditions: c terminus: a fixed tail appended
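Further: lentivirally expressed fusions sorted by FACS into six bins by GFP to DsRed ratio, PSI derived from sequencing read proportions per bin multiplied by bin number.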

Protein stability index, by site and new letter:
T24: E 5 | N 3.15 | C 3.52 | R 2.95 | H 3.51 | Y 2.17 | S 3.85 | K 3.29 | M 2.58 | A 3.08 | D 4.12 | W 2.87 | P 3.55 | Q 2.63 | V 2.86
D23: Q 3.41 | W 1.55 | P 2.64 | A 3.06 | K 2.55 | Y 2.81 | T 2.17 | G 2.72 | M 2.06 | C 2.83 | S 2.73 | N 3.41 | F 2.04 | H 2.16 | R 2.48 | I 1.44
S22: Y 2.51 | M 2.18 | Q 3.64 | D 4.55 | H 3.06 | G 2.74 | E 4.08 | F 2.71 | R 3.29 | A 4.18 | V 3.17 | I 3.12 | W 2.85 | C 3.18 | N 3.55 | T 3.63 | P 3.67 | L 2.35 | K 2.95

Variants of: B2
Assay: as above
Conditions: c terminus: a fixed tail appended

Protein stability index of substitutions, site by site:
A7: E 3.79 | C 3.85 | D 3.68
P3: G 3.08 | K 2.15 | Q 3.11 | A 2.32 | Y 1.69 | F 1.93 | C 2.84 | W 1.76 | H 2.31 | R 2.35 | S 2.27 | L 1.77 | V 2.06 | D 1.96 | I 2.26 | T 2.04 | N 2.5 | M 2.18 | E 3.04
F4: P 3.34 | S 3.48 | K 2.92 | L 2.51 | A 3.75 | H 3.73 | I 3.03 | N 3.38 | T 3.19 | W 3.02 | Y 2.21 | M 3.48 | R 2.89 | C 3.27 | E 4.72 | G 3.25 | Q 3.58 | V 3.3 | D 3.83
Y2: N 4.08 | P 3.58 | T 4.07 | Q 3.04 | M 2.97 | S 3.33 | G 3.54 | I 2.79 | R 2.94 | E 3.62 | W 2.16 | C 2.53 | A 3.43 | D 4.76 | K 2.83 | V 2.6 | F 2.55 | L 3.37 | H 2.48
H1: S 2.58 | I 1.95 | W 2.59 | K 2.62 | A 3.6 | V 2.11 | C 2.11 | Q 2.92 | G 2.64 | L 2.01 | F 2.02 | N 3.84 | P 2.75 | Y 1.99 | T 2.69 | E 2.05 | M 1.82 | D 3.15 | R 2.7
L5: A 3.15 | R 2.66 | M 3.01 | E 3.78 | Q 3.16 | G 3.5 | D 3.75 | Y 2.2 | F 3.19 | C 3.56 | V 2.63 | K 2.47 | N 2.49 | W 2.23 | S 3.1 | P 3.13 | H 2.96 | I 3.14 | T 2.96
G6: H 2.46 | V 1.93 | E 3.16 | S 2.32 | C 3.15 | P 2.83 | R 2.13 | M 2.07 | Y 2.49 | F 1.86 | Q 2.81 | I 2.27 | A 3.07 | W 1.75 | K 2.92 | N 2.54 | D 3.2 | L 2.07 | T 2.81

Source: the supplement of paper PMC10567573
